Measurements as given in patent US20240228562A1 (Pieris, published 2024).
Residue numbers refer to the chain shown, from its start.

T1: mouse CTGF (Abbexa) (mouse, UniProt P29268 26-348, limits assumed)
T1 construct: also called Murine CTGF; mCTGF
T1 sequence (looked up): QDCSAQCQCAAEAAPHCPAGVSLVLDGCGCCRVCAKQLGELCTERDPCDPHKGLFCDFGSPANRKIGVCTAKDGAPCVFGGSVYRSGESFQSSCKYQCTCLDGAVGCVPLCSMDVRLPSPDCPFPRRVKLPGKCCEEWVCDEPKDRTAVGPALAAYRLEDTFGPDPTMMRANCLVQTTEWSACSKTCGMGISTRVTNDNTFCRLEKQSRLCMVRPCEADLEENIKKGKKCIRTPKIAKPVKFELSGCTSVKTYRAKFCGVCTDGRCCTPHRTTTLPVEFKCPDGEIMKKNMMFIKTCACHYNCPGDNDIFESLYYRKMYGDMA

T2: recombinant rat CTGF protein (R&D Systems) (rat, UniProt Q9R1E9 25-347)
T2 construct: Bought; also called rCTGF
T2 sequence: T1 sequence (looked up) with H16R, A148V

B1: lipocalin mutein of SEQ ID NO: 5 (designed binder)
chain: QDSTSDLIPAPPLSKVPLQQNFQDNQFQGKWYVVGKAGNALREDKEPPKMWATIYELKEDKSYDVTHVHFLTKKCKYLIDTFVPGSQPGEFTIGAIKSGPGLTSPLVRVVSTNYNQHAMVFFKWVSQNREWFTITLYGRTKELTSELKENFIRFSKSLGLPENHIVFPVPIDQCIDG
notes: also called hNGAL mutein; not shown: C-terminal His-tag
B2: lipocalin mutein of SEQ ID NO: 16 (designed binder)
chain: QDSTSDLIPAPPLSKVPLQQNFQDNQFQGKWYVVGLAGNAILRTDKQPAKMFATIYELKEDKSYDVTSVRFEAKSCVYTIKTFVPGSQPGEFTAGNIKSAPGQTSTLVRVVSTNYNQHAMVFFKHVSQNREFFVITLYGRTKELTSELKENFIRFSKSLGLPENHIVFPVPIDQCIDG
notes: as for B1
B3: lipocalin mutein of SEQ ID NO: 10 (designed binder)
chain: B2 chain with T44E, V77S, F123W, H125S, S127A, Q128G, N129T, F132S, V134N, T136A
notes: as for B1
B4: lipocalin mutein of SEQ ID NO: 11 (designed binder)
chain: B2 chain with T44E, V77S, I80S, F132T
notes: as for B1
B5: lipocalin mutein of SEQ ID NO: 12 (designed binder)
chain: B2 chain with T44E, Q47Y, A73N, A94T
notes: as for B1
B6: lipocalin mutein of SEQ ID NO: 13 (designed binder)
chain: B2 chain with T44E, Q47Y, A73N, I80S, A94T
notes: as for B1
B7: lipocalin mutein of SEQ ID NO: 14 (designed binder)
chain: B2 chain with T44E, Q47Y, V77I, A94R, F132I
notes: as for B1
B8: lipocalin mutein of SEQ ID NO: 18 (designed binder)
chain: B2 chain with L36I, T44D, Q47Y, A73N, V77I, A94H, A100H, F132I
notes: as for B1
B9: lipocalin mutein of SEQ ID NO: 19 (designed binder)
chain: B2 chain with T44E, V77S, F123H, H125A, F132S
notes: as for B1
B10: lipocalin mutein of SEQ ID NO: 21 (designed binder)
chain: B2 chain with T44E, V77S, H125A, S127R, Q128G, N129A, F132S, V134N, T136A
notes: as for B1
B11: lipocalin mutein of SEQ ID NO: 22 (designed binder)
chain: B2 chain with L36I, T44V, F132I
notes: as for B1
B12: lipocalin mutein of SEQ ID NO: 27 (designed binder)
chain: QDSTSDLIPAPPLSKVPLQQNFQDNQFQGKWYVVGLAGNYRLREDKDPSKMGATIYELKEDKSYDVTQVQFDDKKCLYVIETFVPGSQPGEFTLGAIKSYPGLTSQLVRVVSTNYNQHAMVFLKKVYGSEEYFHITLYGRTKELTSELKENFIRFSKSLGLPENHIVFPVPIDQCIDG
notes: as for B1
B13: lipocalin mutein of SEQ ID NO: 26 (designed binder)
chain: B12 chain with A96N, S99V, G102T, T104E, L123F, G128Q, S129N, E130R, Y132V, H134W
notes: as for B1
B14: lipocalin mutein of SEQ ID NO: 28 (designed binder)
chain: B12 chain with L123V, Y127W, G128P, S129N, E130L, H134Q, T136V
notes: as for B1
B15: lipocalin mutein of SEQ ID NO: 4 (designed binder)
chain: QDSTSDLIPAPPLSKVPLQQNFQDNQFHGKWYVVGRAGNNRLREDKDPPKMWATIYELKEDKSYDVTHVHFMTKKCRYIIDTFVPGSQPGEFTLGAIKSGPGMTSPLVRIVSTNYNQHAMVFFKWVNQNREWFTITLYGRTKELTSELKENFIRFSKSLGLPENHIVFPVPIDQCIDG
notes: also called optimized lipocalin mutein; hNGAL mutein
B16: lipocalin mutein of SEQ ID NO: 30 (designed binder)
chain: QDSTSDLIPAPPLSKVPLQQNFQDNQFHGKWYVVGWAGNIKLREDKDPFKMSATIYELKEDKSYDVTEVVFEQKKCHYIIKTFVPGSQPGEFTLGDIKSPPGETSSLVRVVSTNYNQHAMVFFKKVFQNREFFWITLYGRTKELTSELKENFIRFSKSLGLPENHIVFPVPIDQCIDG
notes: as for B15
B17: lipocalin mutein of SEQ ID NO: 32 (designed binder)
chain: QDSTSDLIPAPPLSKVPLQQNFQDNQFQGKWYVVGWAGNVKLREDKQPFKMSATIYELKEDKSYDVTEVVFEQKKCHYIIKTFVPGSQPGEFTLSPISSSPGLVSHLVRVVSTNYNQHAMVFFKKVHQNREFFWITLYGRTKELTSELKENFIRFSKSLGLPENHIVFPVPIDQCIDG
notes: as for B1
B18: lipocalin mutein of SEQ ID NO: 33 (designed binder)
chain: QDSTSDLIPAPPLSKVPLQQNFQDNQFQGKWYVVGWAGNAKLREDKQPFKMSATIYELKEDKSYDVTEVVFEQKKCHYIIKTFVPGSQPGEFTEGNYKRRPRLWSDLVRVVSTNYNQHAMVFFKKVHQNREFFWITLYGRTKELTSELKENFIRFSKSLGLPENHIVFPVPIDQCIDG
notes: as for B1
B19: lipocalin mutein of SEQ ID NO: 8 (designed binder)
chain: QDSTSDLIPAPPLSKVPLQQNFQDNQFQGKWYVVGLAGNYGLRTDKRPSKMFATIYELKEDKSYDVTSVRFEQERCHYTIRTFVPGSQPGEFTSGNIGNYPGSYSTLVRVVSTNYNQHAMVFFKSVIQNREYFAITLYGRTKELTSELKENFIRFSKSLGLPENHIVFPVPIDQCIDG
notes: as for B1

Each binder was assayed against T3, recombinant human CTGF-Fc protein (Creative Biomart) (human) (assay: SPR (Biacore)).
T3 construct: Bought; also called human CTGF with a human IgG1 Fc Tag
T3 sequence (chain, as listed by the source limits assumed): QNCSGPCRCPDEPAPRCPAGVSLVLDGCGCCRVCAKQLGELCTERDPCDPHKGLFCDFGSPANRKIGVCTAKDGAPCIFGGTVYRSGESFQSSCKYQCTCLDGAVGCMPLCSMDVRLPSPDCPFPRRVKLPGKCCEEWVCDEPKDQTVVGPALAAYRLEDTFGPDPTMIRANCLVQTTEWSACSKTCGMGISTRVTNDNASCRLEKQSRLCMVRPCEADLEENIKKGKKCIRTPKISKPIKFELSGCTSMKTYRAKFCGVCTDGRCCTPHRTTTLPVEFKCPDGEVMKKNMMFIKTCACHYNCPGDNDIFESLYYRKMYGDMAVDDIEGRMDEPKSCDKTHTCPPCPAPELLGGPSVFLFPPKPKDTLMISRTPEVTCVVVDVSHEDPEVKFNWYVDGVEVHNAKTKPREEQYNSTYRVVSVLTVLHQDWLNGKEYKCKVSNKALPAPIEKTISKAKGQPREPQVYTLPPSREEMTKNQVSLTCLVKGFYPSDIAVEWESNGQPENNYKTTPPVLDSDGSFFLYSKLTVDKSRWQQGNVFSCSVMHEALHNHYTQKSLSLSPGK
Experimental: (§1) The binding of exemplary lipocalin muteins to human (Creative Biomart), cynomolgus, rat (R&D Systems) and mouse CTGF (Abbexa) was determined by SPR using a Biacore instrument (Cytiva, formerly GE Healthcare). Some targets were fused to a human IgG1 Fc tag, and captured via the anti-human IgG antibody kit, others were directly immobilized.
(§2) For some measurements, human CTGF with a human IgG1 Fc Tag or rat or murine CTGF without a tag were directly immobilized to a CM5 Chip. The carboxyl groups on the chip were activated using 1-ethyl-3-(3-dimethylaminopropyl)-carbodiimide (EDC) and N-hydroxysuccinimide (NHS). […] Residual non-reacted NHS-esters were blocked by passing a solution of 1 M ethanolamine across the surface. The reference channel was activated/deactivated. For the capture setting, targets with an IgG Fc Tag at 0.25-2.5 μg/mL in HBS-EP+ buffer were captured by the anti-human IgG-Fc antibody at the chip surface for 180 s at a flow rate of 10 μL/min.
(§3) The binding assay was carried out with a contact time of 180 s, a dissociation time of 900-3600 s and a flow rate of 30 μL/min. All measurements were performed at 25° C. […] For the directly immobilized targets, the same regeneration conditions were used. Prior to the protein measurements, three startup cycles were performed for conditioning purposes.
B1 was tested, and the Kd was 0.315 nM, the koff was 6.65e-05 s⁻¹ and the kon was 211000 M⁻¹ s⁻¹.
B2 gave a Kd of 0.76 nM, a koff of 7.02e-05 s⁻¹ and a kon of 92300 M⁻¹ s⁻¹.
B3 was tested, and the Kd was 0.033 nM, the koff was 2.23e-06 s⁻¹ and the kon was 67700 M⁻¹ s⁻¹.
Binder B4 has a Kd of 2.44 nM, a koff of 0.000108 s⁻¹ and a kon of 44400 M⁻¹ s⁻¹.
In the case of B5, the Kd is reported as 2.4 nM, the koff is reported as 0.000133 s⁻¹ and the kon is reported as 55600 M⁻¹ s⁻¹.
With B6 the Kd was 0.049 nM, the koff was 2.51e-06 s⁻¹ and the kon was 51000 M⁻¹ s⁻¹.
B7 gave a Kd of 0.523 nM, a koff of 5.34e-05 s⁻¹ and a kon of 102000 M⁻¹ s⁻¹.
With B8 the Kd was 0.074 nM, the koff was 3.05e-06 s⁻¹ and the kon was 40900 M⁻¹ s⁻¹.
With B9 the Kd was 0.918 nM, the koff was 5.2e-05 s⁻¹ and the kon was 56600 M⁻¹ s⁻¹.
In the case of B10, the Kd is reported as 0.523 nM, the koff is reported as 6.63e-05 s⁻¹ and the kon is reported as 127000 M⁻¹ s⁻¹.
B11 showed a Kd of 0.057 nM, a koff of 8.05e-06 s⁻¹ and a kon of 142000 M⁻¹ s⁻¹.
B12 was tested, and the Kd was 0.802 nM, the koff was 2.45e-05 s⁻¹ and the kon was 30500 M⁻¹ s⁻¹.
With B13 the Kd was 1.32 nM, the koff was 3.06e-05 s⁻¹ and the kon was 23200 M⁻¹ s⁻¹.
B14 showed a Kd of 0.517 nM, a koff of 2.61e-05 s⁻¹ and a kon of 50400 M⁻¹ s⁻¹.
B15: binds.
B16: binds.
In the case of B17, the Kd is reported as 0.587 nM, the koff is reported as 6.39e-05 s⁻¹ and the kon is reported as 109000 M⁻¹ s⁻¹.
In the case of B18, the Kd is reported as 0.099 nM, the koff is reported as 1.71e-05 s⁻¹ and the kon is reported as 172000 M⁻¹ s⁻¹.
B19 was tested, and the Kd was 2.52 nM, the koff was 0.000114 s⁻¹ and the kon was 45400 M⁻¹ s⁻¹.

The binders below were run against T1, mouse CTGF (Abbexa) (assay: SPR (Biacore)).
Experimental: as §1, §2, §3
Binder B2 has a Kd of 0.393 nM, a koff of 6.34e-05 s⁻¹ and a kon of 161000 M⁻¹ s⁻¹.
B4 showed a Kd of 1.02 nM, a koff of 8.19e-05 s⁻¹ and a kon of 80100 M⁻¹ s⁻¹.
B5 was tested, and the Kd was 1.41 nM, the koff was 0.000128 s⁻¹ and the kon was 91400 M⁻¹ s⁻¹.
B7 was tested, and the Kd was 0.369 nM, the koff was 7.03e-05 s⁻¹ and the kon was 190000 M⁻¹ s⁻¹.
Work on B9 yielded a Kd of 0.273 nM, a koff of 2.54e-05 s⁻¹ and a kon of 93200 M⁻¹ s⁻¹.
B10 gave a Kd of 0.173 nM, a koff of 3.94e-05 s⁻¹ and a kon of 228000 M⁻¹ s⁻¹.
B12 was tested, and the Kd was 4.16 nM, the koff was 0.000172 s⁻¹ and the kon was 41400 M⁻¹ s⁻¹.
For B13, the Kd was 5.89 nM, the koff was 0.000208 s⁻¹ and the kon was 35300 M⁻¹ s⁻¹.
In the case of B14, the Kd is reported as 1.35 nM, the koff is reported as 8.23e-05 s⁻¹ and the kon is reported as 60700 M⁻¹ s⁻¹.
B17 showed a Kd of 1.98 nM, a koff of 0.000264 s⁻¹ and a kon of 133000 M⁻¹ s⁻¹.
Work on B18 yielded a Kd of 0.301 nM, a koff of 5.29e-05 s⁻¹ and a kon of 176000 M⁻¹ s⁻¹.
Binder B19 has a Kd of 1.81 nM, a koff of 0.000131 s⁻¹ and a kon of 72000 M⁻¹ s⁻¹.

These binders were tested against T2, recombinant rat CTGF protein (R&D …) (assay: SPR (Biacore)).
Experimental: as §1, §2, §3
B1 gave a Kd of 1.23 nM, a koff of 0.000362 s⁻¹ and a kon of 294000 M⁻¹ s⁻¹.
For B3, the Kd was 0.46 nM, the koff was 4.08e-05 s⁻¹ and the kon was 88800 M⁻¹ s⁻¹.
Binder B11 has a Kd of 0.221 nM, a koff of 4.01e-05 s⁻¹ and a kon of 181000 M⁻¹ s⁻¹.
B18 gave a Kd of 0.226 nM, a koff of 6.3e-05 s⁻¹ and a kon of 279000 M⁻¹ s⁻¹.
